# Assay results taken from publication PMC9274624.
# Assays:
# Test in all cases: SPR
# [1] = target: alpaca ACE2 extracellular domain (residues 1-740) fused with the Fc domain of mouse IgG (alpaca)
# [2] = target: big-eared horseshoe bat ACE2 extracellular domain (residues 1-740) fused with the Fc domain of mouse IgG (big-eared horseshoe bat)
# [3] = target: fox ACE2 extracellular domain (residues 1-740) fused with the Fc domain of mouse IgG (fox)
# [4] = target: fulvous fruit bat ACE2 extracellular domain (residues 1-740) fused with the Fc domain of mouse IgG (fulvous fruit bat)
# [5] = target: goat ACE2 extracellular domain (residues 1-740) fused with the Fc domain of mouse IgG (goat)
# [6] = target: horse ACE2 extracellular domain (residues 1-740) fused with the Fc domain of mouse IgG (horse) (UniProt F6V9L3)
# [7] = target: mink ACE2 extracellular domain (residues 1-740) fused with the Fc domain of mouse IgG (mink)
# [8] = target: monkey ACE2 extracellular domain (residues 1-740) fused with the Fc domain of mouse IgG (monkey) (UniProt F7AH40)
# [9] = target: pig ACE2 extracellular domain (residues 1-740) fused with the Fc domain of mouse IgG (pig) (UniProt K7GLM4)
# [10] = target: rabbit ACE2 extracellular domain (residues 1-740) fused with the Fc domain of mouse IgG (rabbit) (UniProt G1TEF4)
# [11] = target: raccoon dog ACE2 extracellular domain (residues 1-740) fused with the Fc domain of mouse IgG (raccoon dog) (UniProt B4XEP4)
# [12] = target: sheep ACE2 extracellular domain (residues 1-740) fused with the Fc domain of mouse IgG (sheep)
# [13] = target: wild Bactrian camel ACE2 extracellular domain (residues 1-740) fused with the Fc domain of mouse IgG (wild Bactrian camel)
substance,measurement,setting,value
SARS-CoV-2 Delta RBD (residues 319-541) (from UniProt P0DTC2 319-541) (domain or fragment),Kd,[1],0.381 µM
same,Kd,[2],0.0496 µM
same,Kd,[3],0.0357 µM
same,Kd,[4],0.2 µM
same,Kd,[5],0.0663 µM
same,Kd,[6],0.079 µM
same,Kd,[7],0.288 µM
same,Kd,[8],0.0165 µM
same,Kd,[9],0.0644 µM
same,Kd,[10],0.0583 µM
same,Kd,[11],0.124 µM
same,Kd,[12],0.061 µM
same,Kd,[13],0.233 µM
